Experimental data from the supplement of paper PMC7877785.
± gives the uncertainty stated by the source.

Experiment: self-splicing fitness, log relative to wild type (ln ratio); higher = more splicing; Tetrahymena group I intron in knt gene, E. coli kanamycin selection, DiMSum; sequences stand for … in CUCUCU…GGAGGGAAAAGUUAUCAGGCAUGCACCUGGUAGCUAGUCUUUAAACCAAUAGAUUGCAUCGGUUUAAAAGGCAAGACCGUCAAAUUGCGGGAAAGGGGUCAACAGCCGUUCAGUACCAAGUCUCAGGGGAAACUUUGAGAUGGCCUUGCAAAGGGUAUGGUAAUAAGCUGACGGACAUGGUCCUAACCACGCAGCCAAGUCCUAAGUCAACAGAUCUUCUGUUGAUAUGGAUGCAGUUCACAGACUAAAUGUCGGUCGGGGAAGAUGUAUUCUUCUCAUAAGAUAUAGUCGGACCUCUCCUUAAUGGGAGCUAGCGGAUGAAGUGAUGCAACACUGGAGCCGCUGGGAACUAAUUUGUAUGCGAAAGUAUAUUGAUUAGUUUUGGAGUACUCGUGGUCG
Summary of the method: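 DiMSum derived fitness as the error-weighted combination of fold changes across replicates, kanamycin versus no kanamycin, normalised to wild type. E. coli BL21(DE3) held the library, which randomised all eight P1ex-region intron nucleotides within the knt kanamycin-resistance gene on pET-22b(+). Six replicate transformations grew overnight at 37°C or 30°C on LB agar with or without 25 μg/mL kanamycin, also containing 100 μg/mL carbenicillin, 50 μM IPTG and 0.2% rhamnose, and pooled colonies were amplicon-sequenced on an Illumina HiSeq 2500.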

Sequence: UAAUAGCAAUAUUACGCGUC
- self-splicing fitness (ln) (30 °C): -2.88 ± 0.36
- self-splicing fitness (ln) (37 °C): -2 ± 0.38

Sequence: UAAUAGCAAUAUUACGCUAG
- self-splicing fitness (ln) (30 °C): -2.46 ± 0.12
- self-splicing fitness (ln) (37 °C): -0.773 ± 0.14

Sequence: UAAUAGCAAUAUUACGCUUC
- self-splicing fitness (ln) (37 °C): -1.72 ± 0.29

Sequence: UAAUAGCAAUAUUACGGAAU
- self-splicing fitness (ln) (30 °C): -2.77 ± 0.2
- self-splicing fitness (ln) (37 °C): -1.76 ± 0.2

Sequence: UAAUAGCAAUAUUACGGAGG
- self-splicing fitness (ln) (30 °C): -3.17 ± 0.24
- self-splicing fitness (ln) (37 °C): -2.83 ± 0.4

Sequence: UAAUAGCAAUAUUACGGGCU
- self-splicing fitness (ln) (30 °C): -3.28 ± 0.27
- self-splicing fitness (ln) (37 °C): -2.16 ± 0.19

Sequence: UAAUAGCAAUAUUACGGGGU
- self-splicing fitness (ln) (30 °C): -3.73 ± 0.42
- self-splicing fitness (ln) (37 °C): -1.38 ± 0.45

Sequence: UAAUAGCAAUAUUACGGUAA
- self-splicing fitness (ln) (37 °C): -1.04 ± 0.28

Sequence: UAAUAGCAAUAUUACGGUCC
- self-splicing fitness (ln) (30 °C): -2.53 ± 0.33

Sequence: UAAUAGCAAUAUUACGGUUU
- self-splicing fitness (ln) (30 °C): -2.92 ± 0.19
- self-splicing fitness (ln) (37 °C): -1.39 ± 0.18

Sequence: UAAUAGCAAUAUUACGUACG
- self-splicing fitness (ln) (30 °C): -2.13 ± 0.13
- self-splicing fitness (ln) (37 °C): -1.16 ± 0.17

Sequence: UAAUAGCAAUAUUACGUCUA
- self-splicing fitness (ln) (30 °C): -0.149 ± 0.084
- self-splicing fitness (ln) (37 °C): 0.263 ± 0.087

Sequence: UAAUAGCAAUAUUACGUGAU
- self-splicing fitness (ln) (30 °C): -4.15 ± 0.37
- self-splicing fitness (ln) (37 °C): -1.61 ± 0.21

Sequence: UAAUAGCAAUAUUACGUGUA
- self-splicing fitness (ln) (30 °C): -2.19 ± 0.12
- self-splicing fitness (ln) (37 °C): -0.918 ± 0.1

Sequence: UAAUAGCAAUAUUACGUUUC
- self-splicing fitness (ln) (30 °C): -2.95 ± 0.45
- self-splicing fitness (ln) (37 °C): -1.35 ± 0.23

Sequence: UAAUAGCAAUAUUACGUUUG
- self-splicing fitness (ln) (30 °C): -0.989 ± 0.099
- self-splicing fitness (ln) (37 °C): 0.00265 ± 0.12

Sequence: UACAAGCAAUAUUACGAACG
- self-splicing fitness (ln) (30 °C): -0.239 ± 0.065
- self-splicing fitness (ln) (37 °C): -0.0708 ± 0.08

Sequence: UACAAGCAAUAUUACGACCA
- self-splicing fitness (ln) (30 °C): -0.29 ± 0.12
- self-splicing fitness (ln) (37 °C): -0.203 ± 0.16

Sequence: UACAAGCAAUAUUACGACUU
- self-splicing fitness (ln) (30 °C): -1.19 ± 0.081
- self-splicing fitness (ln) (37 °C): -0.692 ± 0.097

Sequence: UACAAGCAAUAUUACGAGCC
- self-splicing fitness (ln) (30 °C): -2.24 ± 0.48

Sequence: UACAAGCAAUAUUACGAGGU
- self-splicing fitness (ln) (30 °C): -4.06 ± 0.28
- self-splicing fitness (ln) (37 °C): -1.94 ± 0.28

Sequence: UACAAGCAAUAUUACGAUCA
- self-splicing fitness (ln) (30 °C): -0.336 ± 0.079
- self-splicing fitness (ln) (37 °C): 0.387 ± 0.11

Sequence: UACAAGCAAUAUUACGAUGC
- self-splicing fitness (ln) (30 °C): -3.69 ± 0.28
- self-splicing fitness (ln) (37 °C): -3.13 ± 0.29

Sequence: UACAAGCAAUAUUACGCACA
- self-splicing fitness (ln) (30 °C): -1.23 ± 0.11
- self-splicing fitness (ln) (37 °C): -0.242 ± 0.11

Sequence: UACAAGCAAUAUUACGCAUU
- self-splicing fitness (ln) (30 °C): -3.38 ± 0.19
- self-splicing fitness (ln) (37 °C): -1.63 ± 0.16

Sequence: UACAAGCAAUAUUACGCGAU
- self-splicing fitness (ln) (30 °C): -3.74 ± 0.32
- self-splicing fitness (ln) (37 °C): -1.3 ± 0.2

Sequence: UACAAGCAAUAUUACGCGCU
- self-splicing fitness (ln) (30 °C): -1.39 ± 0.12
- self-splicing fitness (ln) (37 °C): -0.322 ± 0.11

Sequence: UACAAGCAAUAUUACGCGUU
- self-splicing fitness (ln) (30 °C): -2.57 ± 0.096
- self-splicing fitness (ln) (37 °C): -1.71 ± 0.093

Sequence: UACAAGCAAUAUUACGCUAU
- self-splicing fitness (ln) (30 °C): -3.38 ± 0.13
- self-splicing fitness (ln) (37 °C): -1.83 ± 0.11

Sequence: UACAAGCAAUAUUACGGAGA
- self-splicing fitness (ln) (30 °C): -2.4 ± 0.17
- self-splicing fitness (ln) (37 °C): -3.27 ± 0.23

Sequence: UACAAGCAAUAUUACGGAGG
- self-splicing fitness (ln) (30 °C): -3.94 ± 0.22
- self-splicing fitness (ln) (37 °C): -2.03 ± 0.16

Sequence: UACAAGCAAUAUUACGGAUG
- self-splicing fitness (ln) (30 °C): -1.16 ± 0.078
- self-splicing fitness (ln) (37 °C): -0.694 ± 0.11

Sequence: UACAAGCAAUAUUACGUAAC
- self-splicing fitness (ln) (30 °C): -4.15 ± 0.16
- self-splicing fitness (ln) (37 °C): -2.28 ± 0.15

Sequence: UACAAGCAAUAUUACGUGGA
- self-splicing fitness (ln) (30 °C): -2.82 ± 0.15
- self-splicing fitness (ln) (37 °C): -2.27 ± 0.11

Sequence: UACAAGCAAUAUUACGUUAU
- self-splicing fitness (ln) (30 °C): -3.39 ± 0.19
- self-splicing fitness (ln) (37 °C): -1.81 ± 0.1

Sequence: UACAAGCAAUAUUACGUUUG
- self-splicing fitness (ln) (30 °C): -3.72 ± 0.13
- self-splicing fitness (ln) (37 °C): -2.57 ± 0.15

Sequence: UACCAGCAAUAUUACGAGAA
- self-splicing fitness (ln) (30 °C): -1.72 ± 0.14
- self-splicing fitness (ln) (37 °C): -1.22 ± 0.13

Sequence: UACCAGCAAUAUUACGAGGA
- self-splicing fitness (ln) (30 °C): -1.63 ± 0.14
- self-splicing fitness (ln) (37 °C): -1.24 ± 0.12

Sequence: UACCAGCAAUAUUACGAUAU
- self-splicing fitness (ln) (30 °C): -2.78 ± 0.12
- self-splicing fitness (ln) (37 °C): -1.32 ± 0.12

Sequence: UACCAGCAAUAUUACGAUUA
- self-splicing fitness (ln) (30 °C): -0.0875 ± 0.065
- self-splicing fitness (ln) (37 °C): 0.118 ± 0.075

Sequence: UACCAGCAAUAUUACGAUUC
- self-splicing fitness (ln) (30 °C): -2.36 ± 0.21
- self-splicing fitness (ln) (37 °C): -1.55 ± 0.18

Sequence: UACCAGCAAUAUUACGAUUG
- self-splicing fitness (ln) (30 °C): -2.62 ± 0.084
- self-splicing fitness (ln) (37 °C): -1.35 ± 0.079

Sequence: UACCAGCAAUAUUACGCAGU
- self-splicing fitness (ln) (30 °C): -4.06 ± 0.27
- self-splicing fitness (ln) (37 °C): -2.62 ± 0.18

Sequence: UACCAGCAAUAUUACGCGGC
- self-splicing fitness (ln) (30 °C): -3.78 ± 0.13
- self-splicing fitness (ln) (37 °C): -3.27 ± 0.18

Sequence: UACCAGCAAUAUUACGCUAA
- self-splicing fitness (ln) (30 °C): -1.14 ± 0.081
- self-splicing fitness (ln) (37 °C): -0.492 ± 0.092

Sequence: UACCAGCAAUAUUACGCUAC
- self-splicing fitness (ln) (30 °C): -3.17 ± 0.2
- self-splicing fitness (ln) (37 °C): -1.83 ± 0.18

Sequence: UACCAGCAAUAUUACGCUCA
- self-splicing fitness (ln) (30 °C): 0.178 ± 0.073
- self-splicing fitness (ln) (37 °C): 0.378 ± 0.081

Sequence: UACCAGCAAUAUUACGCUUA
- self-splicing fitness (ln) (30 °C): -0.566 ± 0.056
- self-splicing fitness (ln) (37 °C): -0.478 ± 0.07

Sequence: UACCAGCAAUAUUACGCUUC
- self-splicing fitness (ln) (30 °C): -3.17 ± 0.23
- self-splicing fitness (ln) (37 °C): -2.3 ± 0.24

Sequence: UACCAGCAAUAUUACGGAAA
- self-splicing fitness (ln) (30 °C): -0.915 ± 0.073
- self-splicing fitness (ln) (37 °C): -0.747 ± 0.077

Sequence: UACCAGCAAUAUUACGGAGG
- self-splicing fitness (ln) (30 °C): -2.34 ± 0.12
- self-splicing fitness (ln) (37 °C): -0.914 ± 0.12

Sequence: UACCAGCAAUAUUACGGCAA
- self-splicing fitness (ln) (30 °C): -0.203 ± 0.067
- self-splicing fitness (ln) (37 °C): 0.462 ± 0.094

Sequence: UACCAGCAAUAUUACGGCAC
- self-splicing fitness (ln) (30 °C): -2.09 ± 0.066
- self-splicing fitness (ln) (37 °C): -1.05 ± 0.067

Sequence: UACCAGCAAUAUUACGGGAG
- self-splicing fitness (ln) (30 °C): -1.64 ± 0.061
- self-splicing fitness (ln) (37 °C): -1.01 ± 0.071

Sequence: UACCAGCAAUAUUACGGUAA
- self-splicing fitness (ln) (30 °C): -1.77 ± 0.076
- self-splicing fitness (ln) (37 °C): -0.857 ± 0.074

Sequence: UACCAGCAAUAUUACGGUAC
- self-splicing fitness (ln) (30 °C): -3.72 ± 0.22
- self-splicing fitness (ln) (37 °C): -2.04 ± 0.16

Sequence: UACCAGCAAUAUUACGGUGG
- self-splicing fitness (ln) (30 °C): -3.17 ± 0.11
- self-splicing fitness (ln) (37 °C): -1.87 ± 0.087

Sequence: UACCAGCAAUAUUACGUAGU
- self-splicing fitness (ln) (30 °C): -2.96 ± 0.099
- self-splicing fitness (ln) (37 °C): -1.65 ± 0.1

Sequence: UACCAGCAAUAUUACGUAUU
- self-splicing fitness (ln) (30 °C): -2.16 ± 0.1
- self-splicing fitness (ln) (37 °C): -2.6 ± 0.18

Sequence: UACCAGCAAUAUUACGUCGC
- self-splicing fitness (ln) (30 °C): -2.97 ± 0.17
- self-splicing fitness (ln) (37 °C): -1.88 ± 0.2

Sequence: UACCAGCAAUAUUACGUGCU
- self-splicing fitness (ln) (30 °C): -4.3 ± 0.19
- self-splicing fitness (ln) (37 °C): -2.93 ± 0.17
